B1: CDC25A (parent)
chain: TVAGKHQDLKYISPEIMASVLNGK
B2: TEKT4 (parent)
chain: LREKLLEAEQSLRNLEDIHMSLEK

Variants of: B1
Assay: protein stability index of a GFP-peptide fusion (GPS, HEK-293T) (PSI 1-6); higher = more stable
Settings: c terminus: a fixed tail appended
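Also: lentivirally expressed fusions sorted by FACS into six bins by GFP to DsRed ratio, PSI derived from sequencing read proportions per bin multiplied by bin number.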

Protein stability index: each site, then its substitutions
T1: F 1.9; A 3.23; G 3.06; D 3.29; C 3.07; H 2.89; E 3.45

Variants of: B2
Assay: as above
Settings: c terminus: a fixed tail appended

Protein stability index: each site, then its substitutions
S21: N 2.6; F 2.63; L 1.59; W 2.38; R 3.24; M 1.75; P 2.82; V 2.35; E 2.35; T 2.81; Q 1.92; K 2.37; H 1.99; G 3.25
L5: W 4.04; C 2.44; S 4.68; Q 5.21; K 4.93; N 5.13; E 5.05; D 5.1; P 4.75; F 3.27; G 4.83; M 3.2; T 4.67; I 2.72
I18: F 3.02; K 3.16; Q 2.62; T 3.28; G 2.96; V 3.21; A 2.81; D 3.33; N 3.43; S 3.84; C 2.63; R 2.63
M20: A 3.28; L 2.58; G 3.51; W 2.55; C 3.03; Y 3.15; T 2.98; E 2.17; I 2.86; Q 1.79; D 2.71; K 2.07; R 2.36
L15: K 2.71; M 2.56; T 2.47; Y 2.29; F 3.29; Q 2.64; H 3.22; S 3.36; C 2.81; N 2.65; I 2.64; D 1.55; A 3.2; R 2.38; G 2; W 1.93
E3: Q 2.82; A 2.29; V 2.01; P 2.24; G 1.96; Y 2.15; T 1.63; S 2.47; N 2.27; H 2.71; R 2.69; K 2.1; W 1.81; C 1.96; F 2.46
S11: P 4.21; F 1.96; H 2.75; K 2.08; Y 1.83; Q 2.33; W 1.48; I 4.94; T 2.55; D 2.57; G 2.28; L 1.83
K24: C 2.09; Q 2.39; S 2.35; F 1.25; H 4; G 2.52; T 2.98; L 1.93; R 2.44; I 1.81; N 2.13; E 2.53; Y 1.68
L22: C 3.73; V 2.09; T 3.05; K 3.54; Q 2.33; I 2.81; F 1.98; E 2.98; N 3.22; A 3.01; W 1.55
D17: Q 2.23; F 1.79; P 2.7; T 2.27; S 2.33; I 1.58; C 2.46; G 2.81; L 1.89; K 2.32; Y 1.45; W 1.76; A 2.31
L1: P 4.12; F 1.74; H 3.92; R 3.52; W 1.92; S 4.82; T 4.24; K 4.27; N 4.65; D 5.15; V 1.98; G 4.38; M 3.12; C 3.07; I 1.82; A 3.67
E9: P 3.52; W 2.06; T 2.44; D 3.4; S 2.61; C 1.85; N 3.15; K 3.17; H 2.58; A 2.38; I 1.75; V 2.05; G 2.89; L 2.77; F 1.37
E16: S 2.25; P 2.71; D 2.35; Q 2.15; R 2.12; W 1.18; G 2.37; V 2.06; C 1.33; N 1.94; K 2.3; A 1.41; T 2.21; H 1.59
R2: I 2.41; C 1.48; T 2.83; Q 1.9; N 1.86; S 2.33; F 1.16; P 3.11; E 2.43; V 1.7; Y 2.05; K 3.61; H 2.02; L 1.93
Q10: K 2.37; C 3.01; R 2.69; N 2.76; Y 1.85; P 4.65; L 3.22; F 2.89; G 2.71; S 2.79; A 3.49; T 2.77; D 1.92
E23: Y 1.93; S 2.15; C 4.07; V 2.07; I 1.88; A 3.45; H 2.21; G 1.58; K 2.74; N 1.47
N14: K 2.27; L 1.64; D 2.27; R 2.78; C 2.26; H 1.77; V 2.56; P 2.04; E 3.99; G 2.71; S 2.07; W 1.35
K4: I 2.36; E 3.17; P 3.54; C 2.54; V 2.51; G 3.45; R 2.88; Q 2.17; M 1.76; W 1.74; D 4.01; Y 2.33; A 2.21; H 3.01; S 2.63; F 1.43
R13: I 2.6; F 2.11; H 3.38; T 2.61; S 1.89; Y 2.11; Q 3.43; V 2.96; C 2.21; K 2.22; G 2.22; L 2.18; D 3.69; M 2.52
L12: M 2.97; D 5.05; R 3.02; A 3.84; T 3.17; S 3.62; Y 2.03; W 1.79; G 3.89; H 4.44; E 4.97
H19: C 2.96; M 2.79; T 2.63; N 2.93; G 2.02; D 3.48; L 1.96; Q 3.91; S 3.43; F 1.83; E 2.91; P 3.26; V 2.51; K 2.8; A 1.76
E7: C 2.17; M 2.38; Y 2.08; F 2.5; P 4.17; T 2.93; G 3.75; S 2.42; W 1.75; V 2.56; Q 2.35; N 2.39; D 2.38; L 1.75
A8: S 3; L 1.63; V 2.72; D 2.86; E 3.99; P 4.59; K 4.01; W 1.8; Y 3.58; I 1.48; T 2.61; F 2.52; C 1.64; H 3.67
L6: P 5.19; T 2.94; W 2.23; F 2.34; S 4.23; Q 2.91; K 3.31; D 3.54; C 2.92; G 2.65; M 2.83; Y 2.61; A 3.11; V 2.65; I 1.86; N 2.89

From the supplement of paper PMC10567573
